According to PMC12551112, “Exploration into the MLL4/WRAD Enzyme-Substrate Network: Systematic In Vitro Identification of CFP1 as a Potential Non-Histone Substrate of the MLL4 Lysine Methyltransferase” (Epigenomes, 2025):
Ends that are not written are not given here. Me3 = trimethyl-lysine; Me2 = dimethyl-lysine

B1: CFP1 K351me2 peptide (peptide, UniProt Q9P0U4 341-361, looked up)
peptide: KEERYKRHRQK(Me2)QKHKDKWKHP
notes: CFP1 (CXXC finger protein 1), human, peptide centred on K351 with 10 flanking residues on each side; held on the cellulose membrane of the array; source: synthetic peptide, SPOT synthesis on cellulose membrane
B2: CFP1 K335me3 peptide (peptide, UniProt Q9P0U4 325-345, looked up)
peptide: VKVKHVKRREK(Me3)KSEKKKEERY
notes: CFP1 (CXXC finger protein 1), human, peptide centred on K335 with 10 flanking residues on each side; held on the cellulose membrane of the array; source: synthetic peptide, SPOT synthesis on cellulose membrane
B3: CFP1 K335me1 peptide (peptide, UniProt Q9P0U4 325-345, looked up)
peptide: VKVKHVKRREK(Me)KSEKKKEERY
notes: as for B2
B4: CFP1 K340me3 peptide (peptide, UniProt Q9P0U4 330-350, looked up)
peptide: VKRREKKSEKK(Me3)KEERYKRHRQ
notes: CFP1 (CXXC finger protein 1), human, peptide centred on K340 with 10 flanking residues on each side; held on the cellulose membrane of the array; source: synthetic peptide, SPOT synthesis on cellulose membrane
B5: CFP1 K335me0 peptide (peptide, UniProt Q9P0U4 325-345, looked up)
peptide: VKVKHVKRREKKSEKKKEERY
notes: CFP1 (CXXC finger protein 1), human, peptide centred on K335 with 10 flanking residues on each side; held on the cellulose membrane of the array; also called unmethylated K335; source: synthetic peptide, SPOT synthesis on cellulose membrane
B6: CFP1 K335me2 peptide (peptide, UniProt Q9P0U4 325-345, looked up)
peptide: VKVKHVKRREK(Me2)KSEKKKEERY
notes: as for B2
B7: CFP1 K331me1 peptide (peptide, UniProt Q9P0U4 321-341, looked up)
peptide: RKRAVKVKHVK(Me)RREKKSEKKK
notes: CFP1 (CXXC finger protein 1), human, peptide centred on K331 with 10 flanking residues on each side; held on the cellulose membrane of the array; also called K331 Kme1; source: synthetic peptide, SPOT synthesis on cellulose membrane
B8: CFP1 K339me1 peptide (peptide, UniProt Q9P0U4 329-349, looked up)
peptide: HVKRREKKSEK(Me)KKEERYKRHR
notes: CFP1 (CXXC finger protein 1), human, peptide centred on K339 with 10 flanking residues on each side; held on the cellulose membrane of the array; source: synthetic peptide, SPOT synthesis on cellulose membrane

Each binder was assayed against T1, MLL4 PHD4–6 (residues 1358–1572) (UniProt O14686 1358-1572) (assay: peptide or protein array; SPOT peptides on cellulose membrane; 1 μM 6xHis-tagged MLL4 PHD cassette in TBS-T overnight at 4 °C; probed with anti-6xHis-HRP, chemiluminescence; signals relative to the H4K20me0 peptide (100%), spots of at least 50% taken as candidate binders). Conditions: both partners purified.
T1 construct: MLL4 (KMT2D, ALR), PHD fingers 4–6, residues 1358–1572; Detected on the array with anti-6xHis-HRP; The purification of the PHD constructs is not described separately; also called MLL4 PHD4–6 cassette; KMT2D PHD4–6; source: bacterially expressed recombinant
T1 sequence (O14686 1358-1572): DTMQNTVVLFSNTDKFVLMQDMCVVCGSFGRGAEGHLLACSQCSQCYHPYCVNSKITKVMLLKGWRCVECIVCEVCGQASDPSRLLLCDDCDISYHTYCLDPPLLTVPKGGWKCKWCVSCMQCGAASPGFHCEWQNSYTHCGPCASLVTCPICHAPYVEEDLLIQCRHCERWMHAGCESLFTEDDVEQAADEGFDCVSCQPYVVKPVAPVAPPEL

Binding result, binds:
B1, B2, B3, B4, B5, B6

Each binder was assayed against T2, MLL4 PHD7 (residues 5079–5152) (UniProt O14686 5079-5152) in the same assay as above. Conditions: both partners purified.
T2 construct: MLL4 (KMT2D, ALR), PHD finger 7, residues 5079–5152; Detected on the array with anti-6xHis-HRP; The purification of the PHD constructs is not described separately; also called KMT2D PHD7; source: bacterially expressed recombinant
T2 sequence (O14686 5079-5152): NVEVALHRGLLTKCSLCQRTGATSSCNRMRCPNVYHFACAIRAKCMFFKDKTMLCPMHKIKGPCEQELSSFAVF

Binding result, binds:
B5

These binders were tested against T3, MLL4 PHD1–3 (residues 156–341) (UniProt O14686 156-341) in the same assay as above. Conditions: both partners purified.
T3 construct: MLL4 (KMT2D, ALR), PHD fingers 1–3, residues 156–341; Detected on the array with anti-6xHis-HRP; The purification of the PHD constructs is not described separately; also called MLL4 PHD1–3 cassette; KMT2D PHD1–3; source: bacterially expressed recombinant
T3 sequence (looked up): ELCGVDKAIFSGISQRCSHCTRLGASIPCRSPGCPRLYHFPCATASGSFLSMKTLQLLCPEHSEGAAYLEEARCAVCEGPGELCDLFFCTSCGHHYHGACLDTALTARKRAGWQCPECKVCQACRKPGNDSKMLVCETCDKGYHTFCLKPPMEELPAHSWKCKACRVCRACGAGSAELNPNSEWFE

Binding result, binds:
B7, B2, B3, B8, B5, B6
